Where only a bound is given, the exact number is not on record here.

The chains are these.
B1: S. cerevisiae Abp1 (full length; SH3 domain 535-592 mutated) / Hua2 (parent)
chain 1: MALEPIDYTTHSREIDAEYLKIVRGSDPDTTWLIISPNAKKEYEPESTGSSFHDFLQLFDETKVQYGLARVSPPGSDVEKIIIIGWCPDSAPLKTRASFAANFAAVANNLFKGYHVQVTARDEDDLDENELLMKISNAAGARYSIQTSSKQQGKASTPPVKKSFTPSKSPAPVSKKEPVKTPSPAPAAKISSRVNDNNDDDDWNEPELKERDFDQAPLKPNQSSYKPIGKIDLQKVIAEEKAKEDPRLVQKPTAAGSKIDPSSDIANLKNESKLKRDSEFNSFLGTTKPPSMTESSLKNDDDKVIKGFRNEKSPAQLWAERKAKQNSGNAETKAEAPKPEVPEDEPEGEPDVKDLKSKFEGLAASEKEEEEMENKFAPPPKKSEPTIISPKPFSKPQEPVKAEEAEQPKTDYKKIGNPLPGMHIEADNEEEPEENDDDWDDDEDEAAQPPLPSRNVASGAPVQKEEPEQEEIAPSLPSRNSIPAPKQEEAPEQAPEEEIEEEAEEAAPQLPSRSSAAPPPPPRRATPEKKPKENPWATAEYDYDAAEDNELTFVENDKIINIEFVDDDWWLGELEKDGSKGLFPSNYVSLGN
chain 2: MQQTKFGKMYLDHDSVVEYSEDEIVEADRITLGYKKRLSMIENQMRHLLEDFSLDVQQIEPILADLQKYYDAFLQLLQKRNKSLQCKRSTHQPVPSPMNSQTSTNAKVNLSGKLMKFQLNSVQKFDEENILRILQNKIEFEHYFQIDKGKKQKVLLLAVYQCLNGPTRLHKVLNIEGIIHNNSIRTILGKQVSSSKWTVFLYDVKLVLLAHRQDVPNLETSKMIVRYGDLFPCALYFKDHTAY

The variants in the first experiment derive from B1. The experiment can be described thus: DHFR protein-fragment complementation in yeast (Abp1-DHFR F[1,2] x partner-DHFR F[3]), deep mutational scanning, second methotrexate selection vs reference. Conditions: with Hua2; S. cerevisiae, DHFR-PCA selection in liquid with methotrexate at 30 C, two 72 h selections (the score uses the second); reference = the pre-selection culture; not an affinity; value at the no-binding floor (a bound); scale: DMS score: mean over two replicates of log2(f_test/f_ref + 0.5)/ln 2, minus the synonymous-codon median.
Take chain 1 E540P: the screen value was -3.

chain 1 E550M: the screen value is less than -3.06.

For chain 1 E550L, the screen value was less than -3.06.

Take chain 1 E550C: the screen value is less than -3.06.

Consider chain 1 E550N, for which the screen value is less than -3.06.

As for chain 1 D568P, the screen value was less than -3.06.

Consider chain 1 A539L, for which the screen value is less than -3.06.

Regarding chain 1 A539K, the screen value is less than -3.06.

For chain 1 A539F, the screen value was less than -3.06.

Regarding chain 1 A539M, the screen value is less than -3.06.

As to chain 1 A539I, the screen value is -3.01.

Consider chain 1 A539Y, for which the screen value was less than -3.06.

chain 1 A539D: the screen value was -3.

chain 1 A539R: the screen value is -3.02.

Regarding chain 1 A539N, the screen value was less than -3.06.

In the case of chain 1 A539Q, the screen value is -3.03.

As to chain 1 A539W, the screen value is -3.01.

On to chain 1 D566W, for which the screen value is less than -3.06.

Regarding chain 1 D566P, the screen value was less than -3.06.

Consider chain 1 D566L, for which the screen value is less than -3.06.

With chain 1 D566I, the screen value is less than -3.06.

On to chain 1 E547P, for which the screen value is less than -3.06.

Staying with this experiment, now noted: with Hua2; S. cerevisiae, DHFR-PCA selection in liquid with methotrexate at 30 C, two 72 h selections (the score uses the second); reference = the pre-selection culture; not an affinity; scale: DMS score: mean over two replicates of log2(f_test/f_ref + 0.5)/ln 2, minus the synonymous-codon median.
Take chain 1 E540F: the screen value is -2.97.

Turning to chain 1 E555W, the screen value is -1.84.

Consider chain 1 K580Y, for which the screen value was -1.88.

Turning to chain 1 K580G, the screen value is -2.39.

For chain 1 K580D, the screen value was -2.63.

As for chain 1 K580W, the screen value was -1.55.

chain 1 G572R: the screen value was -2.78.

Regarding chain 1 G572E, the screen value was -2.36.

Consider chain 1 G572V, for which the screen value is -2.77.

As for chain 1 G572W, the screen value is -2.24.

As to chain 1 T552C, the screen value is -1.73.

As to chain 1 T552P, the screen value was -2.02.

Take chain 1 T552Q: the screen value was -1.13.

For chain 1 T552Y, the screen value was -2.8.

chain 1 T552E: the screen value is -1.32.

Take chain 1 T552M: the screen value was -2.22.

On to chain 1 T552I, for which the screen value was -1.99.

Turning to chain 1 T552V, the screen value was -2.72.

On to chain 1 T552F, for which the screen value is -2.87.

Take chain 1 E550V: the screen value is -2.76.

For chain 1 E550K, the screen value was -2.04.

Consider chain 1 E550G, for which the screen value is -2.84.

On to chain 1 E550A, for which the screen value is -2.77.

chain 1 E550D: the screen value was -1.79.

chain 1 F583C: the screen value is -2.31.

chain 1 F583Y: the screen value is -1.68.

For the variant chain 1 F583I, the screen value was -1.72.

On to chain 1 F583V, for which the screen value is -2.31.

Take chain 1 F583S: the screen value was -2.62.

For the variant chain 1 F583L, the screen value was -1.78.

chain 1 N561E: the screen value is -1.17.

chain 1 N561C: the screen value was -2.22.

For chain 1 N561I, the screen value was -1.97.

With chain 1 N561M, the screen value was -2.43.

As for chain 1 N561R, the screen value is -2.12.

For the variant chain 1 N561Y, the screen value was -2.5.

In the case of chain 1 N561G, the screen value is -1.4.

Consider chain 1 N561A, for which the screen value was -2.29.

For the variant chain 1 N561T, the screen value is -1.97.

As for chain 1 N561Q, the screen value was -1.98.

Take chain 1 N561S: the screen value was -2.28.

Consider chain 1 E563L, for which the screen value was -1.4.

As for chain 1 E563F, the screen value is -1.96.

As to chain 1 E563Y, the screen value was -2.45.

As to chain 1 E563G, the screen value was -1.92.

With chain 1 E563M, the screen value is -1.5.

As to chain 1 E563W, the screen value is -2.93.

With chain 1 L574A, the screen value was -1.53.

Take chain 1 L574G: the screen value is -2.91.

chain 1 L574P: the screen value is -2.01.

Turning to chain 1 L574S, the screen value is -1.23.

Consider chain 1 L574H, for which the screen value was -1.08.

Regarding chain 1 L574Q, the screen value was -1.79.

For the variant chain 1 S585E, the screen value was -2.07.

With chain 1 S585I, the screen value was -1.59.

In the case of chain 1 D548Y, the screen value was -1.22.

Consider chain 1 L590E, for which the screen value was -2.84.

As for chain 1 L590Q, the screen value was -2.62.

Turning to chain 1 L590K, the screen value is -2.78.

In the case of chain 1 L590T, the screen value was -2.55.

Consider chain 1 L590H, for which the screen value was -2.44.

Consider chain 1 L590A, for which the screen value is -2.75.

Consider chain 1 L590C, for which the screen value was -2.24.

As to chain 1 L590P, the screen value is -1.72.

chain 1 L590R: the screen value is -2.85.

For chain 1 L590Y, the screen value is -1.64.

Consider chain 1 L590W, for which the screen value was -1.2.

Consider chain 1 L590S, for which the screen value is -2.63.

As for chain 1 D568C, the screen value was -2.91.

As for chain 1 A539G, the screen value was -2.8.

As to chain 1 A539S, the screen value was -1.72.

In the case of chain 1 A539T, the screen value was -1.45.

Consider chain 1 A539P, for which the screen value was -2.72.

Regarding chain 1 A539E, the screen value was -2.3.

Regarding chain 1 E573D, the screen value is -1.16.

As for chain 1 E573A, the screen value was -1.17.

As to chain 1 E573K, the screen value was -1.32.

As to chain 1 E573L, the screen value is -2.11.

As for chain 1 E573W, the screen value is -2.52.

On to chain 1 E573G, for which the screen value was -2.56.

With chain 1 E573R, the screen value was -1.65.

For chain 1 S589Y, the screen value was -1.12.

Regarding chain 1 S589P, the screen value was -2.38.

Consider chain 1 E575T, for which the screen value was -1.44.

Take chain 1 E575N: the screen value is -1.15.

Turning to chain 1 E575R, the screen value is -1.6.

chain 1 E575P: the screen value was -1.33.

On to chain 1 E575G, for which the screen value was -1.41.

In the case of chain 1 E575F, the screen value was -1.16.

Turning to chain 1 K576V, the screen value was -1.06.

For chain 1 K576D, the screen value was -1.75.

As for chain 1 K576F, the screen value was -2.16.

As to chain 1 K576W, the screen value was -2.17.

In the case of chain 1 K576I, the screen value is -1.18.

chain 1 K576Y: the screen value was -1.6.

In the case of chain 1 K576L, the screen value was -1.83.

For the variant chain 1 K576M, the screen value is -1.51.

On to chain 1 K576P, for which the screen value is -2.88.

Regarding chain 1 D566V, the screen value was -2.75.

Turning to chain 1 S579W, the screen value is -2.9.

chain 1 S579I: the screen value is -1.27.

Regarding chain 1 S579P, the screen value was -2.21.

Regarding chain 1 S579G, the screen value is -1.41.

For the variant chain 1 S579F, the screen value is -2.55.

Take chain 1 S579Y: the screen value was -2.71.

Regarding chain 1 S579D, the screen value is -1.27.

Consider chain 1 S579A, for which the screen value was -1.48.

As to chain 1 W570R, the screen value was -2.58.

With chain 1 W570F, the screen value was -2.79.

chain 1 W570G: the screen value was -2.48.

Consider chain 1 W570S, for which the screen value is -2.8.

For the variant chain 1 W570C, the screen value was -1.57.

Turning to chain 1 W570Y, the screen value is -2.31.

chain 1 W570L: the screen value is -2.25.

Take chain 1 W570N: the screen value was -2.68.

In the case of chain 1 G581V, the screen value was -2.59.

Turning to chain 1 G581S, the screen value was -2.77.

For chain 1 G581C, the screen value is -2.66.

chain 1 G581R: the screen value was -2.96.

chain 1 G581A: the screen value was -2.84.

chain 1 G581D: the screen value is -2.22.

On to chain 1 W569R, for which the screen value was -2.35.

Turning to chain 1 W569C, the screen value was -1.49.

For the variant chain 1 W569E, the screen value was -2.94.

As to chain 1 W569V, the screen value was -2.92.

Consider chain 1 W569L, for which the screen value is -2.34.

Take chain 1 W569G: the screen value is -2.06.

For the variant chain 1 E547A, the screen value is -2.3.

On to chain 1 E547W, for which the screen value is -2.89.

In the case of chain 1 E547V, the screen value was -2.1.

For the variant chain 1 E547G, the screen value was -2.81.

Turning to chain 1 E547C, the screen value is -2.2.

In the case of chain 1 E547I, the screen value is -2.45.

For the variant chain 1 E547M, the screen value is -1.68.

For the variant chain 1 E547F, the screen value was -1.69.

Take chain 1 V588L: the screen value was -2.21.

Turning to chain 1 V588G, the screen value was -2.23.

As for chain 1 V588I, the screen value is -2.59.

On to chain 1 V588D, for which the screen value was -2.95.

In the case of chain 1 V588W, the screen value was -2.8.

With chain 1 V588T, the screen value is -2.13.

With chain 1 V588F, the screen value is -2.87.

Consider chain 1 V588M, for which the screen value is -1.92.

As for chain 1 V588A, the screen value was -1.52.

Regarding chain 1 V588E, the screen value is -2.04.

These data come from paper PMC7954794, “Protein context shapes the specificity of SH3 domain-mediated interactions in vivo” (Nature Communications, 2021).
